Source: the DeepSol protein solubility set

experiment: soluble on expression in E. coli; label from the status in PepcDB or PDB records

| Sequence | soluble on expression in E. coli |
| --- | --- |
| SYYHHHHHHLESTSLYKKAGLKIKAVGAYSAKQPLEPMDITRREPGPNDVKIEIAYCGVCHSDLHQVRSEWAGTVYPCVPGHEIVGRVVAVGDQVEKYAPGDLVGVGCIVDSCKHCEECEDGLENYCDHMTGTYNSPTPDEPGHTLGGYSQQIVVHERYVLRIRHPQEQLAAVAPLLCAGITTYSPLRHWQAGPGKKVGVVGIGGLGHMGIKLAHAMGAHVVAFTTSEAKREAAKALGADEVVNSRNADEMAAHLKSFDFILNTVAAPHNLDDFTTLLKRDGTMTLVGAPATPHKSPEVFNLIMKRRAIAGSMIGGIPETQEMLDFCAEHGIVADIEMIRADQINEAYERMLRGDVKYRFVIDNRTLTD | soluble |
| MGSDKIHHHHHHMPPLPVLNRPQIHTSVTEISHAIDRTIKEELFPVAYTTEEEQYFKTNPKPAYIDELIKDAKEFIDLQYSLKRNKIVLITSGGTTVPLENNTVRFIDNFSAGTRGASSAEQFLANGYSVIFLHREFSLTPYNRSFSHSINTLFLDYIDSEGKIKPEFAENVLKNKKLYDKYMEKEEKLLLLPFTTVNQYLWSLKSIAKLLNNSGCLFYLAAAVSDFFVPYSRLPQHKIQSGDNGKMGANNDTEGTTRTTPDGKLIVNLDPVPKFLRRLVESWATQAMIVSFKLETDESMLLYKCTQALDRYNHQLVIGNLLQTRNKQVIFVSPENRKGDWVRLDEKHHIIEEMIIPEVIARHDKWVAHSKTKLATK | not soluble |
| LRSVFVSGFPRGVDSAQLSEYFLAFGPVASVVMDKDKGVFAIVEMGDVGAREAVLSQSQHSLGGHRLRVRPREQKEFQSPASKSPKG | soluble |
| MGHHHHHHSHENKKAKPVPWVEKYRPKCVDEVAFQEEVVAVLKKSLEGADLPNLLFYGPPGTGKTSTILAAARELFGPELFRLRVLELNASDERGIQVVREKVKNFAQLTVSGSRSDGKPCPPFKIVILDEADSMTSAAQAALRRTMEKESKTTRFCLICNYVSRIIEPLTSRCSKFRFKPLSDKIQQQRLLDIAKKENVKISDEGIAYLVKVSEGDLRKAITFLQSATRLTGGKEITEKVITDIAGVIPAEKIDGVFAACQSGSFDKLEAVVKDLIDEGHAATQLVNQLHDVVVENNLSDKQKSIITEKLAEVDKCLADGADEHLQLISLCATVMQQLSQNC | soluble |
| GRVESVWDLKGVWADQAQSDSQGSTTTATRNALPEHPNALAFQVSVVEASAYKPNTSSGQTQSTNSSPYLHLVKPKKVTQSDKLDDDLKNLLDPNQVRTKLRQSFGTDHSTQPQPQSLKTTTPVFGTSSGNLSSVLSGGGAGGGSSGSGQSGVDLSPVEKVSGWLVGQLPSTSDGNTSSTNNLAPNTNTGNDVVGVGRLSESNAAKMNDDVDGIVRTPLAELLDGEGQTADTGPQSVKFKSPDQIDFNRLFTHPVTDLFDPVTMLVYDQYIPLFIDIPASVNPKMVRLKVLSFDTNEQSLGLRLEFFKPDQDTQPNNNVQVNPNNGDFLPLLTASSQGPQTLFSPF | soluble |
| MSLQNRIMITGAGSGLGREMALRWAREGWRLALSDINDAGLQETLALVREAGGDGFVQRCDVRDYSQLTAFAQTCEERFGGMDIIVNNAGVASGGFFNELSLEDWDWQIAINLMGVVKGCKAFLPMLQASKGKIINIASMAALMQAPAMSNYNVAKAGVVALSESLLVELRDQDVGVHVVCPSFFQTNLLDSFRGPTPAMKAQIGRLLEKSPITATDIADYIFTQVAEGEFMILPHEEGRLAWDMKRQQPQAMYDEMTVMCAKMRAKAQKGEGHHHHHH | soluble |
| MLESSLTFLLLPVGFPGEVLVTLARRAREAMPVPSLWLASTDPLEPPIEAYSWERMQFDAEKVNEHIHSVLYDYVREGIRIIGVVDADGYIPGFNFVFGLASTALGVATVYTRRLKTGGNGLYTERLLKEVLHEAGHLLGLDHCSNRECVMSFSRSVEEVDRKAPLFCSSCKAKLVLKYGSRGQLEHHHHHH | soluble |
| GAMTKPRFTTGLVYDTLMLKHQCTAGSSSSHPEHAGRIQSIWSRLQETGLRGKCEAIRGRKATLEELQTVHSEAHTLLYGTNPLNRQKLDSKKLLGSLASVFVRLPCGGVGVDSDTIWNEVHSAGAARLAVGCVVELVFKVATGELKNGFAVVRPPGHHAEESTPMGFCYFNSVAVAAKLLQQRLSVSKILIVDWDVHHGNGTQQAFYSDPSVLYMSLHRYDDGNFFPGSGAPDEVGTGPGVGFNVNMAFTGGLDPPMGDAEYLAAFRTVVMPIASEFAPDVVLVSSGFDAVEGHPTPLGGYNLSARCFGYLTKQLMGLAGGRIVLALEGGYDLTAICDASEACVSALLGNELDPLPEKVLQQRPNANAVRSMEKVMEIHSKYWRCLQRTTSTAGRSLIEAQTCENEEAETVT | soluble |
| MGSDKIHHHHHHMIRSLWIAKTGLDAQQTQMDVISNNLANVSTNGFKRGRAVFEDLMYQNIRQPGALSSDQTTLPSGLQLGTGVRPVATERIHTQGNPQQTGNSKDVAIIGQGFFQVAMPDGTTAYTRDGSFQVDQNGQLVTSSGFVIQPAITIPANTTSMTVARDGTVSVTQPGSSNNVQVGQLQLATFMNPAGLESMGENLYVQTDASGAPNTTVPGLNGAGVLQQNYVEASNVNVVEELVSMIQTQRAYEINSKAVQTSDQMLQRLTQMG | not soluble |
| MHNMFPALTKTLSLQGYKIINSQTGSAAWSCGRRWFSSDKDDHDDVVTRIKIAPIKRTNEPLDKKRARLIYQSRKRGILETDLLLSGFAAKYLKKMNEEELEEYDSLLNELDWDIYYWATKNFKTSPLPDKWANSKLLKQLQEFSENKEKEILSMPDLSKYQ | soluble |
| MGSDKIHHHHHHMKKQFEMYFSLGTLIGYMHDNKLIATGGVFPFKDSFSTIGMLIVHPNFQGQGIGRTLLNHCLAHTHPKQPIALIATKAGEPLYTSCGFQTVTTIHRFEKQTTKTHITHTQQVKEKDIISLISLDQSTTGADRSLLYSLLLPRTSHSFKIERHNCIEAFSLCIQKGNILCINPLIAKREEDAIQLLQKICECWNGTVRLDVPHSQFSFRKLLQTENFQETLLSPLMIKNGSQLPGNRNMLFAMIDTALC | not soluble |
| MANSAGSMQQILNQFNHVVAIGGGHGLGRVLSSLDFLGNRLTGIVATTDNGGSTGRLRAEQDCIAWGDLRNCLSQLAHRPSVGSQLFEYRFQGETELSGHNLGNLMLLALDKLCVRPLEAVNLIRHMLKIETNIIPMSEQPTHLVALQASGSKVFGEVNVDKMNEAPIALCLEPQVNATTEACEAIRRADLIILGPGSFLTSIMPPLLLPCFAKALAMTTAPVVFIDNLNEEASPAGQFSIEQRISWCHQVIGKPVITKVLRHSEQLRLGTLVNYFPLRNRHNPQLHDQASLRDALCAVLRIKSGLPLETLVSLEHHHHHH | not soluble |
| DESSKNGLMDMVSQGLNAESSPLTELLTSQLPVSTEQAAGGSSALIALAQSQLSQQNSTELQSLIPGLSNLKGAQSLLGNIESLSAVQSAFN | not soluble |
| MGSDKIHHHHHHMSAFNAVQVGRRVLAVEADALRVLADSLGEAFANAVETIFNAKGRVVCTGMGKSGHVARKIAATLASTGTQAMFVHPAEASHGDLGMIGPDDVVLALSKSGAGRELADTLAYAKRFSIPLIAMTAVADSPLGQAGDILLLLPDAPEGTAEVNAPTTSTTLQIALGDAIAVALLERRGFTASDFRVFHPGGKLGAMLRTVGDLMHGADELPLVAADAAMPDALLVMSEKRFGAVGVVDNAGHLAGLITDGDLRRHMDGLLTHTAGEVMTHAPLTIGPGALAAEALKVMNERRITVLFVVERERPVGILHVHDLLRAGVI | not soluble |
| PQEKLKLLAFTGTKGKTTAAYFAYHMLKESYKPAMFSTMNTTLDGKTFFKSQLTTPESLDLFAMMAECVTNGMTHLIMEVSSQAYLVDRVYGLTFDVGVFLNISPDHIGPIEHPTFEDYFYHKRLLMENSRAVVINSGMDHFSFLADQVADQEHVFYGPLSDNQITTSQAFSFEAKGQLAGHYDIQLIGHFNQENAMAAGLACLRLGASLADIQKGIAKTRVPGR | not soluble |
| MGSDKIHHHHHHATRSGKTPVSVELEIGGLPGDESVDDAIDPDLENPNTSFDLLFIPKEFTFETQAISGDLTAVPIRPSEGNTHTMRHFGMGDVRGALTGWHVTAEIPHMRNEAHSLLGIITFQLTGSYARYDKTLRRFFMTNTMYGLDFSEDPAAPDFPTNPIIIGNGATLMSNAGDRKGQGMWSGRMTDISLAIQTPVSQLFPGAYTGSIIWNLISGPV | not soluble |
| MANLIYLTLNGDNQGLISSGCSSQPSIGNKAQTAHIDQIMIYEFMHGLNRDQNVNHHHLTIKKPIDKASPLLGKAICDNELLTCDFSFYRTNKFGINELFYKIKLTGAKISDIHVSISHIVVDNSVQPEESVSFSYESIIWEHCSAGTSAYSLWEDRLF | not soluble |
| MTLSILVAHDLQRVIGFENQLPWHLPNDLKHVKKLSTGHTLVMGRKTFESIGKPLPNRRNVVLTSDTSFNVEGVDVIHSIEDIYQLPGHVFIFGGQTLFEEMIDKVDDMYITVIEGKFRGDTFFPPYTFEDWEVASSVEGKLDEKNTIPHTFLHLIRKK | soluble |
| MRKKDAYISQVKVRQDPVNQLAVEMRAKRFGLTIEEAKNPLAGSYVGRLCLQGVLTQDQYDATQKYLEVRNDYSCAKGLPSAVYDEKPSSSDDKAREKWVERATEQFCNTQKVLKEAQCLYRQHNLYAALQYLVMEDQELPHLVNALRIALNTLQKYFDPKSKWEMFYCYEKLLKNR | not soluble |
| MASEVRIKLLLECTECKRRNYATEKNKRNTPNKLELRKYCPWCRKHTVHREVKI | soluble |
| GMNRGKALQLVKPHLTEHRYQHTIGVMETAIDLAKLYGADQQKAELAAIFHDYAKFRDKNEMRTLIREKLSQQDILFYGDELLHAPCGAYYVREEVGIEDEDVLQAIRFHTTGRPNMSLLEKIIFLADYIEPNRQFPGVEKVRTQAKTDLNGAIISSLVNTITFLLKKNQPIYPDTLATYNQLLLEQK | soluble |
| MAHHHHHHMDMQEQISDKGADDYDDTLVELKESELLKEDEKKKTKKKLYELNELHHLVNALPYIDSYDNELEQNAKRLVEEEMNLMHKNNEIKNYLETFPLPKITYLSNDNSIIQNELKRCEENRKMQKLNFDHYNIENDVLNNKNIEEWEKTLKKYEIILENSHNALINMELMNKYKEVMWSEHMKVFNHLDINLQNNIKTLKDDIDNINKKRKLHQLSYVNELSTLQNEQKEYKKKNNMVLNEIKKLMTENMLMKYKTNMI | not soluble |
| MTRYLRLSGLEPFVLTPDIPFVNVGERTNVTGSARFRKLITNRDYAAALEVARDQVQNGAQILDVNMDEGLIDSKAAMVEFLNLIASEPDIARVPLMIDSSKWEVIEAGLKCVQGKPVVNSISLKEGEESFRRQAGLCLAYGAAVVVMAFDEEGQADSFARKTTICARAYRILVEEVGFPPEDIIFDPNVFAVATGIEEHDNYGVDFIEAARWIRANLPHAHVSGGVSNLSFSFRGNEPVREAMHAVFLYHAIRAGMDMGIVNAGQLAVYDQIDPDLREACEDVVLNRKPKQGGTATERLLALAER | not soluble |
| MDKRISIAIDGPAAAGKSTVAKVVAKKLSYVYIDTGAMYRTITYAALEQKVDIENEEQLMEVVKNVKIEFQQGENTQLVFLNGQDVSEVIRTPEVTNRVSIVAKHRLVREEMVRRQQELAEKGGVVMDGRDIGTHVLPDAEVKIFMLASVEERAERRHLENMNKGFDSNLEQLKEEIAQRDKLDSEREVSPLKKADDALELDTTSLSIEEVVQKIMGIVLGVFAK | not soluble |
| MSSEIAYSNTNTNTENENRNTGAGVDVNTNANANANATANATANATANATAELNLPTVDEQRQYKVQLLLHINSILLARVIQMNNSLQNNLQNNINNSNNNNIIRIQQLISQFLKRVHANLQCISQINQGVPSAKPLILTPPQLANQQQPPQDILSKLYLLLARVFEIW | not soluble |
